Laboratory results from the nanobody polyreactivity screen of Harvey et al. (2022).

Assay: yeast display, Sf9 membrane polyspecificity reagent, FACS + sequencing; frameworks hold sequencing errors
Procedure, shortened: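 Synthetic nanobody libraries on Saccharomyces cerevisiae BJ5465 were galactose-induced for 36–48 hours, stained 1 hour at 4 °C with 10% biotinylated, detergent-solubilized Sf9 membrane reagent and enriched on streptavidin microbeads. FACS then separated cells into low and high (top ~1%) gates by anti-HA (expression) and streptavidin (reagent binding) fluorescence. Genes were colony-PCR amplified, MiSeq 2 × 250 sequenced and CDR-length filtered. A clone's polyreactivity label is that of its gate of origin.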

Sequence	polyreactivity (PSR sort gate)
AVQLEESRGGLVQAGGSLRLSCAASGFIFTVNAMGWSRQAPGKERELVAAITQSGGNTSYADSVKGRFTFSRDNAKNTFYLQMNSLKPEDTAVYYCAADDVDVEHPASWDDYDSWGQGTQVTVSS	low polyreactivity
EEELVESGGGLVQAGGSLRLSCAASGRIFGPYAMGWYRQAPGKEREFVAAISGGGGNTYYADSVKGRFTISRDNAKNTVNLQMNSLKPEDTAVYYCAAQHVPRWWWYAPVKYDYWGQGTQVTVSS	low polyreactivity
EEELVESGVGLVQAGGSLRLSCAASGRTFARNAMGWYRQAPGKERELVAGINFSGGNTYYADSVKGRFTISRDNAKNTVYLQMNSLKPEDTAVYYCAARRYWEGDYWGQGTQVTVSS	low polyreactivity
EVQLVESGGGLVQAGGSLRISCAASGRIFNFYAMGWYRQAPGKEREFVASIRSNVGSTYYADSVKGRFTISRDNAKNTVYLQMNSLKPEDTAVYYCNARYYWYRGYDYWGQGTQVTVSS	high polyreactivity
EVQLVESGGGLVQAGGSLRLSCAASGRIFVHYAMGWYRQAPGKERELVAAITSGSSTNYADSVKGRFTISRDNAKNTVYLQMNSLKPEDTAVYYCAADYSVHRVRDRWFDYWGQGTQVTVSS	low polyreactivity
EVQLVESGGGLVQAGGSLRLSCAASGSTFNWNDMGWYRQAPGKEREFVASISTTGSTNYADSVKGRFTISRDNAKNTVYLQMNSLKPEDTAVYYCNAEYGWYYWYGYWFYEGDYWGQGTQVTVSS	high polyreactivity
EVQLVESGGGLVQAGGSLRLSFAASGFTFRYYAMGWYRQAPGKERELVASITGGGRTYYADSVKGRFTISRDNAKNTVYLQMNSLKPEDTAVYYCATLLAYRLGSGYDSWGQGTQVTVSS	high polyreactivity
EVQLVESGGGLVQPGGSLRLSCAASGYIYSRYRMGWYRQAPGKGREFVAAISGGSSTNYADSVKGRFTISRDNSKNTVYLQMNSLRAEDTAVYYCAAYKIDIDPRVYWGHGTQVTVSS	low polyreactivity
EVQLVESGGGLVQPGGSLRLSCAASGYIYSRYRMGWYRQAPGKGREFVAAISGGSSTNYADSVKGRFTISRDNSTNTVYLQMNSLRAEDTAVYYCAAYKIDSDPRVYWGQGTQVTVSS	low polyreactivity
EVQLVESGGGLVQPGGSLRLSCASSGYIYRRYRMGRYRQAPGKGREFVAAISGGSSTNYADSVKGRFTISRDNSKNTLYLQMKSLRAEDTAVYYCEGYKIDSDPRVYWGQGTQVTVSS	low polyreactivity
EVQLVESRGGLVQAGGSLRLSCAASGRIFRVYTMGWYRQAPGKERELVAAISRGGTTTYADSVKGRFTISCDNAKNTVYLQMNSLKPEDTAVYYCNARGWFRGEFDYWGQGTQVTVSS	high polyreactivity
EVQLVESVGGLVHAGGSLGLSFAASGSIFDRNAMGWYRQAPGKERELVAAISVSGGSTYYADSVKGRFTISRDNAKNTVYLQMNSLKPEDTAVYYCDKAGRYANLPYGYWGHGTQVTVSS	high polyreactivity
HAQLQESGGGLVQAGGSLRRSCAASGSIFRFSGMGWYRRAPGKERELVASIGFGSITYYADRVKGRFTMSRDNANNTVYLQKNSLKPEDTAVDYCAVQVQDESWLDYWGQGTQVTVSC	low polyreactivity
HCQLVESGGVLVQEGGSLRISCAASGYTFTPYAMGWYRQAPGKEREFVAGITWRTGRTYYADSVKGRFTISRDIAKNTVYLQMISLKPEDTAVYYCNKYHQRRYYWSYDYWGQGTQVTVSS	low polyreactivity
HDQLVETGGGLVQAGGSLRLSCAASGRTYSKYAMGRYRQPPGKERELVAAITSGGGTYYADSVKGRFTISRDNAKNTVYVQMNSLSPEDSAVYYCAVSVTTVSTHDYWGQGTQVTVSS	low polyreactivity
HEQQQDSGAGLVQAGGSLRLSCAASGNIFDSPRMGWYRQATGKEREFVATIGSGTITNYADSVKGRFTISRDNAKNTVYLQMNSLKPEDTAVYYCAAEFYLRRFKVTKRYWFDYWGQGTQVTVSS	low polyreactivity
HGQLVESGGGLVHAGGSLRLSCAASGSTFAIYALGWYREAPGKERELVAGITGRGTSTYYADSVKGRFTISRDNAKNTVYLQMNSLKPEDTAVYYCNKVRYAFRYDYWGQGTQVTVSS	high polyreactivity
HGQLVESGGGLVQAGGSLRLSCAASGITFTPKDMGWYREAPGKERELVAAISSSDGTTYYADSVTGRFTSSRDNAKNTVYLQMNSLKPEDTAVYYCAAEYYYSPAYDYYSGFKTLYYDWGQGTQVTGSS	high polyreactivity
HLQLVESGGGLVQAGGSLRLSCAPSGSTFKRNTKGWYRQAPGKEREMVASINRGGSTYYADSVKGRFTISSDNAKNTVYLQMNSLKPEDTAVYYCAKRVLNCYTGTQAPNKFGYWGQGTQVTVSS	low polyreactivity
HVLLVESAGGLVQAGGSLRLSCAASGLIFHRYAMGWYRQAPGKERELVAAISSSGGITYYADSVKGRFTISRDNAKNTVYLQMNSLKPEDTAFYYCAADTGKGTPFSAGLGRAGDYWGQVTQVTVSS	low polyreactivity
HVQLGESGGGLVQAGGSLRLSCAASGFIFQRYAMGWDRQAPGKERELVAAITTSGGRTYYADSVKGRFTMSRDNAKKTVYLQMNSLKPEDTAVYYCAAEGSHNSEYWGQGTQVTVSS	high polyreactivity
HVQLQESDGGLVQAGGSLRLSCAASGSISPQYYMCWYRQAPGKEREFVAISKGTTTYYADSVKGRLTISRVNAKNTVYLQMNSLKPEDTAVYCCAAGRWLQKVHAYWDQGTQVTVSS	low polyreactivity

Sequence	polyreactivity (PSR sort gate)
HVQLQESGGCLVQAGGSLRLSCAARGSNSRLDSMGWNRQASGKVRELVAAIDNGSTTYYADSVKGRLTISRDNAKYSVYLQMNSLKAEDTAVYFCAAVRGGGGTHAYWGQGTQVTVSG	low polyreactivity
HVQLQESGGGLVQAGGSLRLSCAASGNISNSRNMGWYRQAPGKERELVAAIDRGAITYYADSVKGRFTISRDNAKNTVYLQIYSLKPEDTAVYYCAAEYHDRWDHRYWGQGTQVTVSS	high polyreactivity
HVQLQESGGGLVQAGGSLRLSCAASGNISYSRNMGWYRQAPGKERELVAAIDRGAITYYADSVKGRFTISRDNAKNTVYLQIYSLKPEDTAVYYCAAEDHDRWDHLYWGQGTQVTVSS	high polyreactivity
HVQLVEAGGGLVQAGGSLRVSCAASGFTIHYNAMGWYRQAPGKGWELVATISKSAGITSYADSVKGRFTISRDNATNTVYFPMNSLKPEDTAVYYCAADKSYRRVYYWGQGSQVTVSS	low polyreactivity
HVQLVESGGGFVQAGGSLRLSCASYGSIFSGYAMGSYRQAPAKERELVAAISNTGSTNYADSVKGRFTISRDNAKYNVYLQMNSLKPEDTAVYYCNASYSYGEMDYWGQGTQVTVSS	low polyreactivity
HVQLVESGGGLVQAAGSLRLSCAASGSTFYRYAMGWYRQAPVKERELVAAITRGGGRTYYADSVKGRFTISRDNAKNTVYLQMNSLKPEDTAVFYCNAASPYYDSWGQGTQVTVSS	high polyreactivity
HVQLVESGGGLVQAGARLRLSCAASGITFFYYAMGWYRQAPGKERELVAAINWSGRTYYADSVKGRFTISRDNAKNTVYLQMNSLKPEDTAVDYCAAVTYGPGVSGMDYWGQGTQVTVSS	low polyreactivity
HVQLVESGGGLVQAGGILRLSCAASGRIFPGYTMGWYRQGPGKERELVARISFSDGSTYYADSVNGRFTISRDNAKNTVYFQMNSRKPEDTAVYYCNAATYRNRHSNNGYWGQGTQVTVSS	low polyreactivity
HVQLVESGGGLVQAGGSLRLSCAASGFIFDVNAMGWYRQAPGKERELVAVIRGSGGSTYYADSVKGRFTISRDNAKNTVYLQMNSLKPADTAVYYCAAAVNHVAYHYNYWGQGTQVTVSS	high polyreactivity
HVQLVESGGGLVQAGGSLRLSCAASGFIFRGHVMGWYRQAPGKERELVAAISGGSTTYADSVKGRFTISRDNAKTTVYLQMNSLKPEDTAVYYCAKRDQDRTFPNGYWGQGTQVTVSS	high polyreactivity
HVQLVESGGGLVQAGGSLRLSCAASGFIFVFYDMGWYRPAPGKERELVAGITRNDGSTYYADSVKGRFKISRDNAKNTVYLQMNSLKPEDTAVYYCAADRVRRNDKLAYDYWGQGTQVTVSS	low polyreactivity
HVQLVESGGGLVQAGGSLRLSCAASGFIGIYALGWYRQAPGKERELVAAITTSGGRTYYADSVKGRFTISRDNAKNTVYLQMNSLKPEDTAVYYCAAPWRLFSLYDYWGQGTQVTVSS	low polyreactivity
HVQLVESGGGLVQAGGSLRLSCAASGFTFPIYTMGWYRQAPGKESELVAAISASGGRTYYADSVKGRFTISRDNAKNTVYFQMNSLNPEDTSVYFCAADGYRAPGNAYYYWGQGTQVTVSS	high polyreactivity
HVQLVESGGGLVQAGGSLRLSCAASGFTFRRNAMGWYRQSPGKERELVASITQRGGSTYYADSVKGRFTISRDNAKNTVYLQMNSLKPADTAVYDCNARSWDSFHPHDYWGQGTLVTVSS	high polyreactivity
HVQLVESGGGLVQAGGSLRLSCAASGFTIQRYAMGWYRQAPGKERELVAAITSGGSTYYADSVKGRFTISRDNAMNTVYLQMNSLKPEDTAVYYCATRAVWSSWGRRYDSWGQGTQVTVSS	high polyreactivity
HVQLVESGGGLVQAGGSLRLSCAASGIIFIGNAMGWYSQAPGKERELVAAISRRGGRTYYADSVKGRFTISRDNAKNTVYLQMNSLKPEDTAVYYCNAEISVNDDDYWGQGTQVTVSS	high polyreactivity
HVQLVESGGGLVQAGGSLRLSCAASGIIFWTYTMGWYRQAPGKERELVGAISSGGSTKYADSVKGRFTISRDNAKNTVYLQMNSLKPADTAVYYCNAEFAPWGSAYGHDQYDYWGQGTQVTVSS	low polyreactivity
HVQLVESGGGLVQAGGSLRLSCAASGITFPIYAMGWYRQAPGKEREFVAAINQRGGSTYYADSVKGRFTISRDNAKNTVYLQMNSLKPEDTAVDYCAAENGFNSLSRSGLHYWGQGTQVTVSS	low polyreactivity
HVQLVESGGGLVQAGGSLRLSCAASGLIFSAYAMGWYRQAPGKEREFVAAISRSGGITFYADSVKGRFTISRDNAKNTVYLQMNSLKPEDTAVYYCAARLYKYRRGGGYFWGQGTKVTVSS	high polyreactivity
HVQLVESGGGLVQAGGSLRLSCAASGLTFEDNDMGWYRQAPGKERELVAAISSAGSTSYADSVKGRFTISRVNAKNTVYLQMNSLKPEDTAVYYCAKDNSPSYTPAQLDGGDDYWGHGTQVTVSS	low polyreactivity
HVQLVESGGGLVQAGGSLRLSCAASGNTFKYYAMGWYRQAPGKERELVAAISYSGGSTYYADSVKGRFTISRDNAKNTVYLQMNSLKPEDTAVYYCAADLDSERYYWGQGTQVTVSS	low polyreactivity
